Data on 1 substance can be found in patent publication EP1451343B1.

The test has as its target mouse BRCA1 protein (mouse) (UniProt P48754). Nature of the test: cell-based or functional assay.
Chain of UniProt P48754 (P48754 whole entry): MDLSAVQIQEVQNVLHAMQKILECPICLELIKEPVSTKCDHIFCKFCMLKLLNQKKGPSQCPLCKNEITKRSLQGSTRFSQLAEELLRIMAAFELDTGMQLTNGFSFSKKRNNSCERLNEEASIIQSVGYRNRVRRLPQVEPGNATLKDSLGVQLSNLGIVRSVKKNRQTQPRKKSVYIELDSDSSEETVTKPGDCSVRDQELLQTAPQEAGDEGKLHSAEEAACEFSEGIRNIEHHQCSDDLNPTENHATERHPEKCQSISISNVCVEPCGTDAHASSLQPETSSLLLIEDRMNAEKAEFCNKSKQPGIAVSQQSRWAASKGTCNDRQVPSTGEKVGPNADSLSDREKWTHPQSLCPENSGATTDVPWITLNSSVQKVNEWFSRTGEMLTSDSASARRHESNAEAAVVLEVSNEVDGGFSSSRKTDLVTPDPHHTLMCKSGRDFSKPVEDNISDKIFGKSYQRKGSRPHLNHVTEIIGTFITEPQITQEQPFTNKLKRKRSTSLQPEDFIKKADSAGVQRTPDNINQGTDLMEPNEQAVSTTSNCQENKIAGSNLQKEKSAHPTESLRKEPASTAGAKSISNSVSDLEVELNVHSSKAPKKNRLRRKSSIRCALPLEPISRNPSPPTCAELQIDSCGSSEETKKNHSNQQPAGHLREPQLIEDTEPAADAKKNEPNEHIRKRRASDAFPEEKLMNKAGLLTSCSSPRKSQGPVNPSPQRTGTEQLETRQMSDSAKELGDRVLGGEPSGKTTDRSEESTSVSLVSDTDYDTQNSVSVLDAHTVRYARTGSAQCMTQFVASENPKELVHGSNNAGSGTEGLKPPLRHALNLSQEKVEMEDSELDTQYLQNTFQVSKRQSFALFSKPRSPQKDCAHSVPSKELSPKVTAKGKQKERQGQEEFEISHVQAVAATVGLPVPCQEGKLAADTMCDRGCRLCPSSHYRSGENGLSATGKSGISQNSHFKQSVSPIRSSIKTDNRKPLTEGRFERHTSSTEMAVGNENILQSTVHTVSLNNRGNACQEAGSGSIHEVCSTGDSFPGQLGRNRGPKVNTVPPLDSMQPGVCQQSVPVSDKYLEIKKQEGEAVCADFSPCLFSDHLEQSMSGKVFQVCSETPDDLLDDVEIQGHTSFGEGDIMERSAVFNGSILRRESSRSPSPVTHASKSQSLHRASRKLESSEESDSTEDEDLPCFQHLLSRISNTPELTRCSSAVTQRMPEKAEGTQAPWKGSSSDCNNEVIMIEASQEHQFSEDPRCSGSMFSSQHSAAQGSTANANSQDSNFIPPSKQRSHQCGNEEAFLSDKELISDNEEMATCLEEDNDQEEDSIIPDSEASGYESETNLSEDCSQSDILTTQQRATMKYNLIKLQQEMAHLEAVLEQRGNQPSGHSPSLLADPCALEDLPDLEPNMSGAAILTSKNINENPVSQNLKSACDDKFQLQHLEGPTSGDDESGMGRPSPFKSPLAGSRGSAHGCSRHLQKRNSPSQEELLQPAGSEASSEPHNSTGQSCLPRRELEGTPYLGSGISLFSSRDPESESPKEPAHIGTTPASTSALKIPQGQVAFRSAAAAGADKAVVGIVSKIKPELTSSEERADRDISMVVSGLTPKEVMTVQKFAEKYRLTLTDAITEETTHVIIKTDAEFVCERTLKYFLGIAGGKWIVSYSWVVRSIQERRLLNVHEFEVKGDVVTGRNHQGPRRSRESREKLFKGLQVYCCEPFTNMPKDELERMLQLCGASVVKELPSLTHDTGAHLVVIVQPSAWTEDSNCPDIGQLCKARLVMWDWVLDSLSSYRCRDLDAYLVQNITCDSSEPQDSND

“mouse FANCD2 protein (from UniProt Q80V62 1-1450)”: the anti-FANCD2 foci co-localized with regions of intense anti-BRCA1 staining (20 pachytene nuclei of mouse spermatocytes) was 65%.
